Data from patent US9035028B2, “Temperature sensitive conjugate compositions” (Emory University, priority 2010, dated 2015).

Columns and labels:
[1] = system: activated human platelets; assay: Microscopic analysis of platelet aggregates; format: cell-based; details: 22° C.
Protocol: For the microscopic analysis of platelet aggregates at different temperatures, non-diluted human PRP was placed onto a glass slide and ADP was added to a final concentration of 20 μM, in the presence and absence of EMP-scFv (50 μg/mL). Abciximab was used as a positive control at a concentration of 10 μg/mL. The experiments were conducted at 22° C. and 37° C. Phase contrast microscopy images were taken using an Olympus CKX41 microscope.

[2] = target: T1, GPIIb/IIIa on human platelets (Homo sapiens, UniProt P05106+P08514); assay: Flow cytometry: inhibition of fibrinogen binding to human platelets; format: cell-based
T1 construct: endogenous in cells
Protocol: (§1) Human blood was collected by venipuncture with a 21-gauge butterfly needle from healthy volunteers and anticoagulated with citric acid. Platelet-rich plasma (PRP) was obtained by centrifugation (GS-6R centrifuge, Beckman Coulter) at 100×g at room temperature for 10 min.
(§2) Human PRP was diluted 1/50 in modified Tyrode's buffer containing 2 mM MgCl2 and 2 mM CaCl2. Platelets were either activated by addition of 20 μM ADP, or non activated, followed by the incubation with 15 and 50 μg/mL EMP-scFv fusion protein or EMP at 22° C., 32° C. and at 37° C. for 15 min. Mouse platelets were either pre-activated for 10 min by addition of 0.1 U/mL thrombin (Enzyme Research Laboratories), or non activated, before the incubation with 15 and 50 μg/mL of EMP-scFv fusion protein at 22° C., 32° C. or 37° C. for 15 min. In both, human and mouse samples, EMP-scFv was detected via 15 min in-dark incubation with secondary antibody (Penta-His Alexa Fluor 488, Qiagen) directed against the His(6)-tag of the single-chain antibody.
(§3) Fibrinogen binding to human activated platelets in the presence of EMP-scFv was determined with a polyclonal rabbit anti-human fibrinogen FITC-labelled antibody (DakoCytomation), while the effects of EMP-scFv on fibrinogen binding to mouse platelets were determined using FITC-conjugated rabbit anti-fibrinogen polyclonal antibody (Cemfret). Fluorescence detection was performed as described above. Samples were measured in a FACSCalibur® flow cytometer (Becton Dickinson), after fixation with 1× CellFIX® (Becton Dickinson).

[3] = target: T1, GPIIb/IIIa on human platelets; assay: Flow cytometry: binding to human platelets; details: for binding to human activated platelets: 20 μM ADP
Protocol: as §1, §2
In re-warming experiments, activated and non-activated diluted human PRP was incubated with 15 and 50 μg/mL of EMP-scFv for 15 minutes at 22° C., followed by a 15-min in dark incubation with secondary Penta-His Alexa Fluor 488 antibody. Half of the reaction was then fixed with 1× Cell FIX, while the other half was incubated at 37° C. for either 15 or 30 minutes, before being fixed and measured in FACS.

[4] = target: T2, GPIIb/IIIa on mouse platelets (Mus musculus, UniProt O54890+Q9QUM0); assay: Flow cytometry: inhibition of fibrinogen binding to mouse platelets; format: cell-based
T2 construct: endogenous in cells
T2 sequence (Q9QUM0 32-1033): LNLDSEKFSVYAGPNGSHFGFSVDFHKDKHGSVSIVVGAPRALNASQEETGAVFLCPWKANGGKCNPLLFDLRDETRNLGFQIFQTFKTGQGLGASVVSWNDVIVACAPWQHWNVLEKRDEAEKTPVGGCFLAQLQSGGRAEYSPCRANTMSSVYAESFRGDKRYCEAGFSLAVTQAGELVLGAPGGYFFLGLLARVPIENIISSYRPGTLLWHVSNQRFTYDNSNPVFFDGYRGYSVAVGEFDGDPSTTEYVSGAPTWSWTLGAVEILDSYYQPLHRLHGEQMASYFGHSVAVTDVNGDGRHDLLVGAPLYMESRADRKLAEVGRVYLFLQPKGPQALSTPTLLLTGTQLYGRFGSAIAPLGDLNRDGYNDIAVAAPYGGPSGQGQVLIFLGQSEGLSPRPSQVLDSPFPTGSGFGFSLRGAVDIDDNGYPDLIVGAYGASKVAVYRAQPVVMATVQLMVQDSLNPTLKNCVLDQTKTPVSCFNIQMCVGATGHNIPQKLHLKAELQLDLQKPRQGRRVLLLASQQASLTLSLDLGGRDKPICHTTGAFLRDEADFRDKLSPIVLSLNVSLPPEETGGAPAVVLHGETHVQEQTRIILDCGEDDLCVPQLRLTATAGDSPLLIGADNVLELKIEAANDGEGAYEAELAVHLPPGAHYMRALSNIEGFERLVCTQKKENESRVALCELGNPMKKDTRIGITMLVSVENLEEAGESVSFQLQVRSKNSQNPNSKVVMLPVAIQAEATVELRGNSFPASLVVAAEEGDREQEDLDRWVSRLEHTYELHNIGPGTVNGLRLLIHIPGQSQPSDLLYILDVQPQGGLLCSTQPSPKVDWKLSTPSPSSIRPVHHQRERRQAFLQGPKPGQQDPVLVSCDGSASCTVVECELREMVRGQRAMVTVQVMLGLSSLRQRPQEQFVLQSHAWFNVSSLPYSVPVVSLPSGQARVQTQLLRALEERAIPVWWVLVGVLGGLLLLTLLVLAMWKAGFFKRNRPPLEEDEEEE
T2 sequence (O54890 26-787): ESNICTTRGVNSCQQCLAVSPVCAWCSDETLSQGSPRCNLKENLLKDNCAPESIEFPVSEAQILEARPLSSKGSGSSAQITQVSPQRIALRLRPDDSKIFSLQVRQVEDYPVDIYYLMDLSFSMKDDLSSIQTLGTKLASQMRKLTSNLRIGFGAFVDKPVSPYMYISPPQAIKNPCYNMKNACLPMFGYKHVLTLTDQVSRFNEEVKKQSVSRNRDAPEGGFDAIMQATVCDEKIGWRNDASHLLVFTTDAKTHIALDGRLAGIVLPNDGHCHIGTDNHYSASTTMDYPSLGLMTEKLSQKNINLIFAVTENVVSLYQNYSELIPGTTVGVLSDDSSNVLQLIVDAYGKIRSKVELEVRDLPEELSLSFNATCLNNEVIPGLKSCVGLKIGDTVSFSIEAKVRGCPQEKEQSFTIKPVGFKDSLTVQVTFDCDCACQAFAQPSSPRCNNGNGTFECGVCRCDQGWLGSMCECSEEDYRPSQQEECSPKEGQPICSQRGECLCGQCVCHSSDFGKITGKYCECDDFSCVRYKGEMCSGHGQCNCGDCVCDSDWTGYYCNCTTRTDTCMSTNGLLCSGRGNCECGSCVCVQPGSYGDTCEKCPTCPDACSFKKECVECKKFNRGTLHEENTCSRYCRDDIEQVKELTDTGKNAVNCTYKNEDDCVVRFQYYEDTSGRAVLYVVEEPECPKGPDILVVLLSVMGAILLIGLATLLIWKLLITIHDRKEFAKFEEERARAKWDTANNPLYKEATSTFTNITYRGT
Protocol: (§4) Mouse blood was collected by intracardiac puncture with a 27-gauge needle from C57BL/6 mice and anticoagulated with non-fractionated heparin (20 U/mL). A volume of 50 μl was washed with 1 mL modified Tyrode's buffer (150 mM NaCl, 2.5 mM KCl, 1.2 mM NaHCO3, 0.1% BSA, 0.1% Glucose) and centrifuged at 1200×g for 6 min. The supernatant was discarded and the pellet was resuspended in 1 mL modified Tyrode's buffer containing 2 mM MgCl2 and 2 mM CaCl2.
as §2, §3

[5] = system: jugular venous thrombosis; assay: Model of jugular venous thrombosis; format: in vivo, mouse; details: 28° C., 15 minutes after the injury, vs control group and 37° C.
Protocol: (§5) C57BL/6 mice weighing from 20-25 g were used. Care and use of laboratory animals followed the national guidelines and were approved by the institutional animal care and ethics committees. Mice were anesthetized with isoflurane, following an intra-peritoneal injection with ketamine (100 mg/kg BW) and xylazine (20 mg/kg BW). The body core temperature was monitored with a digital thermometer, and controlled at either 28° C. or 37° C. with a thermal pad (Temperature Controller TR-200, Fine Science Tools Inc.). Reducing the body temperature to 28° C. was achieved by a gradual drop, at a rate of 0.3-0.4° C./min. The mice on the thermal pad were placed under a dissecting microscope (SZ61, Olympus). An incision of the skin was made directly on the top of trachea, and vessels used for experiment were bluntly isolated from surrounding tissues. […] After rinsing with normal saline, a nano-Doppler flow probe (0.5 VB, Transonic) was then positioned over the vessel and the blood flow rate (ml/min) was measured by a transit-time perivascular flow-meter (TS420, Transonic Systems Inc.). […] Jugular vein blood flow was recorded 15 minutes after induction of injury in mice pre-treated with EMP-scFv, eptifibatide or saline. The blood flow recorded at 1 minute was considered as the initial blood flow rate. […]

[6] = target: T2, GPIIb/IIIa on mouse platelets; assay: Flow cytometry: binding to mouse platelets
Protocol: as §4, §2

[7] = system: carotid artery thrombosis; assay: Ferric chloride-induced mouse carotid artery thrombosis model; format: in vivo; details: compared to the control group
Protocol: as §5

[8] = system: human platelets; assay: Flow cytometry: platelet activation (PAC-1 binding, P-selectin expression); format: cell-based; details: human diluted PRP, 22° C.
Protocol: Effects of EMP-scFv on platelet activation were addressed by incubating human diluted PRP with 15 and 50 μg/mL of EMP-scFv at 22° C. for 15 minutes, followed by the addition of either PAC-1 or CD62P antibodies and in-dark incubation for 15 minutes. The reactions were fixed and levels of PAC-1 binding and P-Selectin expression analysed in FACS.

fibrinogen binding to human activated platelets ([2]; 22° C., concentration-dependent): significantly reduced
fibrinogen binding to human activated platelets ([2]; 32° C.): inhibit the binding of fibrinogen
fibrinogen binding to human activated platelets ([2]; 37° C.): not inhibited
binding to human activated platelets ([3]; 22° C.): significantly higher level
binding to human activated platelets ([3]; 37° C.): totally abolished
dissociation from GPIIb/IIIa upon re-warming ([3]; bound to activated platelets at 22° C., then temperature increased to 37° C.): did not dissociate
binding to resting platelets ([3]; human, regardless of the temperature): No binding
fibrinogen binding to activated mouse platelets ([4]; 22° C.): significant decrease
fibrinogen binding to activated mouse platelets ([4]; 32° C.): inhibit the binding of fibrinogen
fibrinogen binding to activated mouse platelets ([4]; 37° C.): did not affect
binding to activated murine platelets ([6]; 22° C., mouse whole blood): binds
binding to resting mouse platelets ([6]; either 22° C. or 37° C.): did not bind
B1: EMP-scFv: fusion of elastin mimetic polypeptide (EMP) and activation-specific GPIIb/IIIa-blocking single-chain antibody; 704 amino acids, approximately 70 kDa (protein)
chain: MAVPAVGIPAVGIPAVGIPAVGIPAVGIPAVGIPAVGIPAVGIPAVGIPAVGIPAVGIPAVGIPAVGIPAVGIPAVGIPAVGIPAVGIPAVGIPAVGIPAVGIPAVGIPAVGIPAVGIPAVGIPAVGIPAVGIPAVGIPAVGIPAVGIPAVGIPAVGIPAVGIPAVGIPAVGIPAVGIPAVGIPAVGIPAVGIPAVGIPAVGIPAVGIPAVGIPAVGIPAVGIPAVGIPAVGIPAVGIPAVGIPAVGIPAVGIPAVGIPAVGIPAVGIPAVGIPAVGIPAVGIPAVGIPAVGIPAVGIPAVGIPAVGIPAVGIPAVGIPAVGIPAVGIPAVGIPAVGIPAVGIPAVGIPAVGIPAVGIPAVGIPAVGIPAVGIPAVGIPAVGIPAVGIPAVGIPAVGIPAVGIPGGGGSMMAEVQLVESGGGLVQPGGSLRLSCAASGFMFSRYAMSWVRQAPGKGPEWVSGISGSGGSTYYADSVKGRFTVSRDNSKNTLYLQMNSLRAEDTAVYYCARIFTHRSRGDVPDQTSFDYWGQGTLVTVSSGSASAPKLEEGEFSEARVSSELTQDPAVSVALGQTVRITCQGDSLRNFYASWYQQKPGQAPTLVIYGLSKRPSGIPDRFSASSSGNTASLTITGAQAEDEADYYCLLYYGGGQQGVFGGGTKLTVLRQPKAAPSVTLFPPSSAAAGSEQKLISEEDLNSHHHHHH
aggregation of activated human platelets (microscopy) [1]: inhibited aggregation
percentage of initial blood flow [5]: significantly higher levels of blood flow
occlusion time ([7]; 28° C.): significantly prolonged
occlusion time ([7]; 37° C.): remained unchanged
platelet activation: P-selectin expression [8]: no effect
platelet activation: binding of PAC-1 [8]: no effect
